Holding throughout (details): EMSA: 0.3 nM DIG-labeled probe; buffer, salt, pH and temperature as in Zhu et al. 2016 (not given)
Data set [1] addresses T1, His6-AvaR1 (Streptomyces avermitilis) (UniProt Q82H41).
T1 sequence: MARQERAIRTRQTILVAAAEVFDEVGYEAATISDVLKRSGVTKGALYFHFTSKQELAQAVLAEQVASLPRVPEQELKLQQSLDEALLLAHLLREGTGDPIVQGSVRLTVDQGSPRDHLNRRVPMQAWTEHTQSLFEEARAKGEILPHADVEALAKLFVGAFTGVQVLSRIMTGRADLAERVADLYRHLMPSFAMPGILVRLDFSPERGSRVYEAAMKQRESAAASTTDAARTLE
In words: EMSA. On the technique in general: Mobility shift assays separate free from complexed probe on a gel.

The target of data set [2] is T1, His6-AvaR1 (Streptomyces avermitilis). Nature of the data set: competition EMSA.
Data set [3] shares this target. Nature of the data set: DNase I footprinting.
For data set [4], the target named is T2, His6-AvaR1;GST-AvaR2 (Streptomyces avermitilis;Streptomyces avermitilis) (UniProt Q82H41+Q82H44).
T2 sequence 1: T1 sequence
T2 sequence 2: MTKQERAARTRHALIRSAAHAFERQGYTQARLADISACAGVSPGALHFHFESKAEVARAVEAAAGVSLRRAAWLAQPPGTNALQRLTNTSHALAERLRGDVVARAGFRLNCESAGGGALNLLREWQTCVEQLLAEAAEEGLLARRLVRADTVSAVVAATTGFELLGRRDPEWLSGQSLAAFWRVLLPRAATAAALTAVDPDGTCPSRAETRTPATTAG
In words: EMSA.

Data set [5] concerns the target T3, GST-AvaR2 (Streptomyces avermitilis) (UniProt Q82H44).
T3 sequence: T2 sequence 2
In words: EMSA.

Data set [6] relates to His6-AvaR1 (Streptomyces avermitilis). In words: competition EMSA.
The target in data set [7] is T4, His6-AvaR2 (Streptomyces avermitilis) (UniProt Q82H44).
T4 sequence: T2 sequence 2
In words: EMSA.

For the substance “GTGCTGCAACACCGAATGGAATACCGGGTGACCGGTATGTATGGCGGTGCGGTGACCGCGGAAACGGCTCGGGCGGATTGACCGCCCGAGCCGGAGGAGAAGGCCATCGCCGCACCCGCGAGCAAGGGTCCAGAGGGACGGCGGCGCGAAGGCGGCCTGGCCTATGGGGAGTTCGGAGGACCAGGCGTCA (double strand) [aveRp]”, the binding entry in data set [1] is “binds”. For the same substance, in data set [2], the binding signal (affinity rank of 5 (1 = strongest)) amounted to 3.

Regarding “TCAACCACCGTCATGTAGGGCGTACGCCCTTGCTGTACGGACCCGGTGTGTTGACGCCCGGTGCCGCGAGCGCACCCCCGCCCGCTCACGGCACCGGACTTCTCGGTGTTCCGGATGACGTCGTGCAGACGCGTGACAACTGCGCCAGTGCTGGTGCTGTGCAGCGTGTTCATCTCGCGCCCCCCGTCGTGGAGTCCGGTATCCCTGCGGTCTTGCCCTGCTGTCCTGCGGTGGTGCTGCCTTGCTTGTGTCGAAAAGCTTGCC (double strand) [probe 1]”, the binding result in data set [1] is “no binding”.

Regarding “GCGGAAGGCGGCTGACCAGAGGGCCCTGCAAGAAACCAGCATAGCGGTTTGTTTGTGGCGCCCGTCACCACTTCGCCGACGCGGTACCCCCGGAGGCCAGGCACCGGTCACTGCCGCCGCCCGCGCTGCCCGCTGCCGCCGCCGAGCCGTACCGCGCGGCTCGGGCGTCGCGCATGCCGTCAGGCCCCCGGCACCTCCCTG (double strand) [avaR2p]”, the binding result in data set [1] was “binds”. In data set [2], the binding signal (affinity rank of 5 (1 = strongest)) came out at 2.

For “TTCAACTGACCGTCCCGCACGTAGAGTTCTGGAGTCACCCGCACATGACCGTACGCAAGAACCAGGCGACCCTGACGGCCGACGAGAAGCGGCGCTTCGTCGACGCGCTCGTGGCGCTCAAGCGCAGTGGCCGCTACGACGAGTTCGTCACGACCCACAACGCCTTCATCATGGGCGACACCGACAGCGGCGAACGCACGGGCCATCGTTCGCCTTCCT (double strand) [melC2p]”, the binding result in data set [1] was “no binding”.

As to “GCCCTCGTCCCAGTAGAAGACGGGTCGCCGGGTTCCTGGGCCCGTGGCCCGCATGCGCAGCTCGACCTGGGTGATCACCTCGGTCTGCGTGGTCTCGACTCATGACCGCGCCGGTCAGCGCCTCCACAAGTCGTCCAAGTTTCAGCCGGTGGCAGACATTCCGTGA (double strand) [wbpAp]”, the binding entry in data set [1] was “no binding”.

As for “ATCCACGCTTCTCGCTCCGCCCAGTGTACGGCGCCGCGCGGACAGCGGCCGACCGGTTTTCCGGGGCCCGCGCGGAAGGCGGCAGGGGGGCCGGTACGGGCCGCGGACTGACCCGAATGGCGA (double strand) [ileSp]”, the binding entry in data set [1] is “no binding”.

With “GAACTGGGTGACGAGGAGCTTCTCGCGAAGCTTCGCGAAGCCAAGGAAGAGCTGTTCAACCTCCGCTTCCAGGCGGCGACCGGTCAGCTCGAGAACCACGGTCGGCTCAAGGCCGTCCGCAAGGACATCGCGCGGATCTACACCCTGATGCGTGAGCGCGAGCTGGGCATCGAGACGGTGGAGAGCGCCTGATGAGCGAGAGCAACGTGACTGAGACCAACGAGCAGCGCGGTTTCCGCAAGACCCGTGAGGGTCTGGTCGTCAGCGACAAGATGGACAA (double strand) [rpsQp]”, the binding entry in data set [1] is given as “binds”.

In the case of “GCCACACGCACCCTCCGCACCAGCCCGACCAGCGGGACACCGTCCCGACCAGTGGGACACCGTCCGGATCGCGGGACACCGTCCCGACCAGCGGGAAAAGACCAAGCGGTTCGCACCCTAACAGCGACGATCCTCCACTCCACCGCCGAAGACAGGCCCGGTCCTGACCGGGACGATAAAACCAGCTGAACGGTTTTTCAATGCTCCCCTCGCCCTCTCACAAACCACTCAAAAACACATATCTCACCCCCAACTCCC (double strand) [avaR1 footprint probe]”, the binding entry in data set [3] is recorded as “binds”.

Regarding “GCCACACGCACCCTCCGCACCAGCCCGACCAGCGGGACACCGTCCCGACCAGTGGGACACCGTCCGGATCGCGGGACACCGTCCCGACCAGCGGGAAAAGACCAAGCGGTTCGCACCCTAACAGCGACGATCCTCCACTCCACCGCCGAAGACAGGCCCGGTCCTGACCGGGACGATAAAACCAGCTGAACGGTTTTTCAATGCTCCCCTCGCCCTCTCACAAACCACTCAAAAACACATATCTCACCCCCAACTCCC (double strand) [avaR1p]”, the binding entry in data set [1] is listed as “binds”. Also, the binding signal (affinity rank of 5 (1 = strongest)) in data set [2] was 5.

As to “TTGTGCCCTGTGTGTGCGCCATGGGCATACCGTCCGGGCGGAATGCCGGGTTCCGGCATCGAACGTCGTGCGATTCGGCAGTTCGAGCGATACCGGATGGTTTCGCTTCTGTTCGATTGCGGGGTGTGGTGTAGGCCAGTACGCGAAACTCGCCGGAAAAGGGGCACCCGCCGCCCGTAGGCTGGGAGGCAT (double strand) [3560p]”, the binding result in data set [1] is reported as “binds”.

Consider “TGCGGTGACCCCCATCTCGATCAGTTCGGTGGGGTGAAACCGCGTGAGCCGGTTGTCGTCCAGGCTCTGGGGCCCGGTGTCCGCGAGGGCGGGGAACGCCCTGAGGGAGGGGTAGGCATAAGGAAGGTACTCGGCGAGGCCGCTGCTGTGGTTGATCAACATCCGGACCGTGATCGCGTCACCGCGTTCTCCGGGAACCAGCCTCGGAAGGTACCGGCCGATCGGAGTGTCAAGACCGATCAGGTCACCGACGAGGAGTGCAACGC (double strand) [2051p]”, for which the binding entry in data set [1] was “no binding”.

For the substance “GCTCTTCGTGCTCACCGTCTTCGTCGCGTACGCGTACGTATGGCGGCGCGGCGGTCTGGAATGGGACTGAGGGGCCTTTAACGACATGGGACTCGAAGAAAAGCTGCCGAGCGGATTCCTGCTGACGAC (double strand) [nuoB1p]”, the binding result in data set [1] is listed as “binds”.

Turning to “GGGTAGTGTCAAGGTCGCTGACTTTGATGATTAACTGATGATCGTGGGATTCTGAGGTGGTGTTCGCGAGGGTGAAGGAGTTCCTTCCTGGAGACATCCGTGCCCCGGATGGCGGTCCACAATTCACGAGTGGGATGCGCAGTGGGTCGCGTGCTGCAACACCGAATGGAATACCGGGTGACCGGTATGTATGGC (double strand) [aveRp2]”, the binding result in data set [4], in data set [5] and in data set [1] was “binds” each time.

For the substance avaR3p, the binding signal (affinity rank of 5 (1 = strongest)) in data set [6] amounted to 1.

Consider avaR2p, for which the binding signal (affinity rank of 5 (1 = strongest)) in data set [6] was determined as 2.

Take avaR1p: the binding signal (affinity rank of 5 (1 = strongest)) in data set [6] is 5.

Turning to “CTCGGGCGTGATCCGACTGCGGCGCACCGTTGCGGTCTCAGTCATCGCACTCGCCTCTCCTGCTTCGAACGACACGGTTTCCGGTTGCGTACGTCTACCCGTACGTCTTCCTCGTACCTTCCTGAAGATACCCCGAGAGCGAGCGAAACGAAACCGTTTCGTACGTGTCGTGGGTCACGCACATGTTTTCACAAGTTGCCGGGGCCCGTCGCGCGGAAAAGCATGGGTTAGGTGAACCCCGAGTCCGA (double strand) [aveTp]”, the binding entry in data set [7] and in data set [1] was “binds” in each case.

Consider “GAGCTTCTCCCTGGCTTGGGACGGGCTGACGTGAACCACGGGACCCGAGAAGGGCTGAGGAAGGGCTGGAGAGCTGCGGAAGAGCTGCGGAGGAGCTGCGGAAGAGCTGCGGAAGAGCTGGAGGTCAAAGATACGTACTAGACGGTTTTGTCTTCAAGTCCCTCTTGCGGTCAAGGGTCATCCCTTACAAGGGAGTTGGGGGTGAGATATGTGTTTTTGAGTGGTTTGTGAGAGGGCG (double strand) [acop]”, for which, in data set [1], the binding result is “binds”. In addition, the binding signal (affinity rank of 5 (1 = strongest)) in data set [2] came out at 4.

For “ACTGATGCGCGAGAAAACCGCACAAGCGGTTTGTTAAAGTTGCTGGACCCCCATCAGCAACGGAGCGCCCGATGGTCAAGCAGGTCAGACAGGAACGCGCGATCCGCACGCGCAACGCCTTGATCGAGTCC (double strand) [avaR3p]”, in data set [1], the binding result was “binds”. In data set [2], the binding signal (affinity rank of 5 (1 = strongest)) is 1.

On to aveRp, for which the binding signal (affinity rank of 5 (1 = strongest)) in data set [6] was 3.

Regarding “CCCTCGACCGGATTGTGGGAGCATCGTGCCATTCCAAGTGGCCGCTATGTGACCGAGTGCCCCCGATCGGCCCCAGATGGCGGGTTAAGGCTAATTAAGGAAACCCCCTGACGCCCCCTGACGGGGTCTGCTCACCCGCACGGCATGATGGCCCCCATGCGTGCGGTGGTGCAGAGGGTGGACGGCGCGAGCGTCGTCGTGGAAGGCGAGAACGGGCCGGAGACGGTCGGTGAGATCAACGGCGAGG (double strand) [amfCp]”, the binding entry in data set [1] is “binds”.

For “CCGCTGGAGTCTGAGAAGCCATGGAAGCATTCACCACGCACACCGGCCGGGCCGTCCCGCTGCGCCGCAGCAACGTCGACACCGACCAGATCATCCCCGCCCACTGGCTCAAGAAGGTCACCAGGGACGGTTTCGAGGACGGGCTGTTCGAGGCCTGGCGCAAGGACGAGTCCTTCATCCTCAACCG (double strand) [leuDp]”, in data set [1], the binding entry is reported as “binds”.
